# Results reported in patent publication US20260049134A1 (UNIVERSITY OF FLORIDA RESEARCH FOUNDATION, published 2026).
# T1: IL13RA1
# T1 construct: also called IL13RA1-Fc-His (R&D Systems)
# T1 chain: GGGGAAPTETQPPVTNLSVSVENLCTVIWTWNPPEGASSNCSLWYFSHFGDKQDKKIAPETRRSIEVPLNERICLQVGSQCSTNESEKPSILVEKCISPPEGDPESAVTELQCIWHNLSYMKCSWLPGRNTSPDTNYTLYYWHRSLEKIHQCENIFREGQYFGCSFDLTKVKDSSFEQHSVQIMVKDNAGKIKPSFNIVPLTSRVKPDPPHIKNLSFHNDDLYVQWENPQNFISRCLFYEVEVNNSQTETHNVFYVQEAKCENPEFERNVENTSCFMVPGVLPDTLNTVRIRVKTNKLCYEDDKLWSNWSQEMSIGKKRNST
# T2: IGSF11
# T2 construct: also called IGSF11-Fc (R&D Systems)
# T2 chain: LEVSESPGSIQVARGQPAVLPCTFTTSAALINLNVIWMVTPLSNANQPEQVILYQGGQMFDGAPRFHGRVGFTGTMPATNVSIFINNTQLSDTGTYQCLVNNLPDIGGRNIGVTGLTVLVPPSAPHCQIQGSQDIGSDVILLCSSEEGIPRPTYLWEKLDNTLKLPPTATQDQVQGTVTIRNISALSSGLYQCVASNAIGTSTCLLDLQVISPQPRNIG
# T3: SELL
# T3 construct: also called SELL-Fc-His (R&D Systems); L-Selectin
# T3 chain: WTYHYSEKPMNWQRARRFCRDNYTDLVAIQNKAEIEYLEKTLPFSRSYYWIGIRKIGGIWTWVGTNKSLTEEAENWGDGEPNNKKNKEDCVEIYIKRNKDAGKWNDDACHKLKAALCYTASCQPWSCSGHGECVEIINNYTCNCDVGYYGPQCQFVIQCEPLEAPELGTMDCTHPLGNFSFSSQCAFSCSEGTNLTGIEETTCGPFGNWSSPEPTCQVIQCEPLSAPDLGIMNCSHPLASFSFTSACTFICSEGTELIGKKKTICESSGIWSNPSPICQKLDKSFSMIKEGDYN
# T4: HHLA2
# T4 construct: also called HHLA2-Fc (R&D Systems); B7-H7; not shown: Fc part and any linker
# T4 chain: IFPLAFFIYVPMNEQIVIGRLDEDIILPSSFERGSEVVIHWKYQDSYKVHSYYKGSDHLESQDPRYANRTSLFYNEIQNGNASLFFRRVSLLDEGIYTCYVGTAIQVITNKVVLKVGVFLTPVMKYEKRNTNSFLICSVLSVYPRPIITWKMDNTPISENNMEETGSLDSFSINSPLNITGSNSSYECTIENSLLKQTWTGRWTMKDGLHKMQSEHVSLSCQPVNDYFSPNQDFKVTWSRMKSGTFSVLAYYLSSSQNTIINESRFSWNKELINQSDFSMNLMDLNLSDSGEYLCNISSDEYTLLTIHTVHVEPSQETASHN
# T5: SLAMF7
# T5 construct: also called SLAMF7-StrepTag; not shown: StrepTag and any linker
# T5 chain: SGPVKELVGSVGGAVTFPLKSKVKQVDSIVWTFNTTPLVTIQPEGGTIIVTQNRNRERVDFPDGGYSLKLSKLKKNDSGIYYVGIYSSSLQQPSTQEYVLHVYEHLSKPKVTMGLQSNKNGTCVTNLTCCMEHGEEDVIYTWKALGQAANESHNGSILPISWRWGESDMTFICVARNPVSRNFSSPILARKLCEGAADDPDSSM
# B1: HW-42 chimeric rabbit-human IgG1 LA/LA/PG (antibody, V domains shown)
# VH: QSVKESEGGLFKPADTLTLTCTVSGFSLSSNEISWVRQAPGEGLEYIGIIDTGGRAYYAVWARSRSTITRNTNLNTVTLKMTSLTAADTATYFCARGGVDTEWYAFSSWGPGTLVTVPS
# VL: SFVLTQPASVQVNLGQTVSLTCTADTLSRRYASWYQQKPGQAPVLLIFRDTSRPSGVPDRFSGSSSGDTATLTISGAQAGDEADYYCATSDGSGSNYQYVFGGGTQLTVTG
# notes: Fc-silenced (L234A/L235A/P329G) IgG1, lambda; Alexa Fluor 647-labeled in single-step flow cytometry; Cluster C-1
# B2: HW-101 chimeric rabbit-human IgG1 LA/LA/PG (antibody, V domains shown)
# VH: QEQLVESGGRLVTPGTPLTLTCKASGFSLGKYDMSWVRQAPGKGLEWIGTIYAGSGSTWYASWAKGRFTISKTSTTVDLKMTSLTTEDTATYFCARDFLGVNSIWGPGTLVTISS
# VL: SFVLTQPASVQVNLGQTVSLTCTADTLSRSYASWYQQKPDQAPVLLIHRDTSRPSGVPDRFSGSNSGNTATLTISGAQAGDEADYYCATSDGSGSNFHFVFGGGTQLTVTG
# notes: Fc-silenced (L234A/L235A/P329G) IgG1, lambda; Alexa Fluor 647-labeled in single-step flow cytometry; Cluster C-97
# B3: HW-70 chimeric rabbit-human IgG1 LA/LA/PG (antibody, V domains shown)
# VH: QSLEESGGRLVTPGTPLTLTCTVSGFSLSSNAMSWVRQAPGKGLEWIGTIDGYGYTYYASWAKGRFTVSKTSTTVDLKITSPTTEDTATYFCAREIYLGSNFWGPGTLVTISS
# VL: SFVLTQPASVQVNLGQTVSLTCTADTLSRRYASWYQQKPGQAPVLLIYRDTSRPSGVPDRFSGSSSGNTATLTISGAQAGDEADYYCATADGSGSSYQFVFGGGTQLTVTG
# notes: as for B1
# B4: HW-97 chimeric rabbit-human IgG1 LA/LA/PG (antibody, V domains shown)
# VH: QKQLVESGGRLVTPGTPLTLTCTVTGIDLSSHGMSWVRQAPGKGLEWIGVIYPSGSTWYASWARGRFTISKTSTTVDLKMTSLTTEDTATHFCARGDVGGADNNIWGPGTLVTVSS
# VL: SFVLTQPASVQVDLGQTVSLTCTAETLSRSYASWYQQKPGQAPVLLIYRDTSRPSGVPDRFSGSSSGNTATLTISGAQAGDEADYYCATSDGSGSSYQYVFGGGTQLTVTG
# notes: Fc-silenced (L234A/L235A/P329G) IgG1, lambda; Alexa Fluor 647-labeled in single-step flow cytometry; Prototype of cluster C-97
# B5: HW-113 chimeric rabbit-human IgG1 LA/LA/PG (antibody, V domains shown)
# VH: QKQLVESGGGLVQPGGSLTLTCTVSGFSLNKYYMGWFRQAPGKGLEWIGVISRSGDTYYSSWAKGRFTISKASTTVDLRITSPTTEDTATYFCARDASSPGFHGDRLDLWGQGTLVTVSS
# VL: SFVLTQPASVQVNLGQTVSLTCTADTLSRSYASWYQQKPGQAPVLLIYRDTSRPSGVPDRFSGSSSGNTATLTISGAQAGDEADYYCATSDGIGSNYLWVFGGGTQLTVTG
# notes: Fc-silenced (L234A/L235A/P329G) IgG1, lambda; Alexa Fluor 647-labeled in single-step flow cytometry
# B6: HW-8 chimeric rabbit-human IgG1 LA/LA/PG (antibody, V domains shown)
# VH: QSLEESGGRLVTPGTPLTLTCTVSGFSLSSYAMSWVRQAPGKGLEWIGAISTGGSTTYASWAKGRFTISKTSSTTVDLKMTSLTTEDTATYFCVRHFRLWGPGTLVTISS
# VL: QVLTQTPSSVSAAVGGTVTIKCQASQSIGSALAWFQQKPGQRPKLLIYRASNLASGVPSRFKGSGSGTEFALTISGVQREDAATYYCLGGAAAVWAFGAGTNVEIKR
# notes: Fc-silenced (L234A/L235A/P329G) IgG1, kappa; Alexa Fluor 647-labeled in single-step flow cytometry; Cluster C-45
# B7: TH9-0022 (antibody, human IgG1, kappa, L234A L235A, V domains shown)
# VH: QSLEESGGRLVTPGTPLTLTCTVSGFSLSSYAMNWVRQAPGKGLEWIGIINSYGSTYYASWAKGRFTISKTSTTVDLKITSPTTEDTATYFCARVTYDSYGYGYAPYGMDLWGPGTLVTVSS
# VL: LVMTQTPSSTSNAVGGTVTIKCQASQSIGNVLAWYQQKPGQPPKLLIYAASTLASGVPSRVGGSRSGTEYTLTISGVQREDAATYYCLGSDSDSDIAFGGGTELEILR
# notes: also called TH9-022; negative control
# B8: TH9-0022 (antibody, human IgG1, kappa, L234A L235A, V domains shown)
# VH: QSLEESGGRLVTPGTPLTLTCTVSGFSLSSYAMNWVRQAPGKGLEWIGIINSYGSTYYASWAKGRFTISKTSTTVDLKITSPTTEDTATYFCARVTYDSYGYGYAPYGMDLWGPGTLVTVSS
# VL: LVMTQTPSSTSNAVGGTVTIKCQASQSIGNVLAWYQQKPGQPPKLLIYAASTLASGVPSRVGGSRSGTEYTLTISGVQREDAATYYCLGSDSDSDIAFGGGTELEILR
# notes: also called TH9-022; negative control IgG1
# How the values were obtained:
# [1] = target: T6, PTPRG, endogenous in H929 multiple myeloma cells (human, UniProt P23470 20-1445); assay: flow cytometry, H929 + vehicle; None 513
# T6 construct: Native protein on H929 cells (flow cytometry, siRNA knockdown) and in H929 lysates (IP/MS); also called phosphatase receptor type γ
# T6 sequence (P23470 20-1445 limits assumed): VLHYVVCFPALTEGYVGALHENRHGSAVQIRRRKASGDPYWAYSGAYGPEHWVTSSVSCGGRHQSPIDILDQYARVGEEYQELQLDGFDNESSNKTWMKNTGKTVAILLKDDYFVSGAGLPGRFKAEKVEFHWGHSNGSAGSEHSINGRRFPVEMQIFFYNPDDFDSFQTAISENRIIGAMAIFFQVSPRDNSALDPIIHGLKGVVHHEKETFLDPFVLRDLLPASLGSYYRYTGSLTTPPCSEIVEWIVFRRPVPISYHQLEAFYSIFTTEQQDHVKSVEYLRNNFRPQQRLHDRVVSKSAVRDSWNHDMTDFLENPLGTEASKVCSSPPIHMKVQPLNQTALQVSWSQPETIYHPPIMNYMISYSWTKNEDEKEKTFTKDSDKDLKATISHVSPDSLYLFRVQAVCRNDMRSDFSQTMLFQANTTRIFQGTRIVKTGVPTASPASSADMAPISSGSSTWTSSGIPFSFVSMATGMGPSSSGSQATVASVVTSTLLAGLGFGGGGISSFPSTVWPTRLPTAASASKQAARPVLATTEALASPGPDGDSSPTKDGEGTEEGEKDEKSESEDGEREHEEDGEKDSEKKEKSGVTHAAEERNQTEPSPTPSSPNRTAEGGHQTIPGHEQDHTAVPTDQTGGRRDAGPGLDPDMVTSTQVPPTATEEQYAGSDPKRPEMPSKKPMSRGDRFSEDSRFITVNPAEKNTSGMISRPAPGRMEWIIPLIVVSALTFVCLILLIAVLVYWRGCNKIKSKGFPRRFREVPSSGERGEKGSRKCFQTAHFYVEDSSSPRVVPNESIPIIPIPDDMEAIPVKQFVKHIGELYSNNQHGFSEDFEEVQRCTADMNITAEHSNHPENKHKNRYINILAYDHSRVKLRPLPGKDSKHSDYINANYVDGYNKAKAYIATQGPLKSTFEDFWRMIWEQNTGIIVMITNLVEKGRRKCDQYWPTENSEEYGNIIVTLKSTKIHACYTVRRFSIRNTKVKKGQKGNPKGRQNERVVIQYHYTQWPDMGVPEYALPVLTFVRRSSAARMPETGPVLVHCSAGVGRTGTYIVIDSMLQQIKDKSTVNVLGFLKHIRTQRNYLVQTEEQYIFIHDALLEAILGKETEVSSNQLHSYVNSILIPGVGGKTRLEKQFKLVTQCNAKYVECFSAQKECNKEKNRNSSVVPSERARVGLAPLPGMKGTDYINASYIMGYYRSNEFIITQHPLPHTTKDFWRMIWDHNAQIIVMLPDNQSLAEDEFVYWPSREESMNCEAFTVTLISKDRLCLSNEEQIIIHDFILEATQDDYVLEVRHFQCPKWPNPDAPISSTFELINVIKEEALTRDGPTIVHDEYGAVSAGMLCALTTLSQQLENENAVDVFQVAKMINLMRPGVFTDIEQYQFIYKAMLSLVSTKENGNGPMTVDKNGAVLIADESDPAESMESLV
# [2] = target: T1, IL13RA1; assay: ELISA on coated protein
# Protocol: (§1) Recombinant purified ECDs (50-150 ng) of each putative target protein were coated, incubated with 150 ng of the indicated primary antibody, and binding was detected using a peroxidase-conjugated anti-human Fab secondary antibody. Heatmap represents averages of technical triplicates. (8B) Target validation via siRNA knockdown. H929 cells were transfected with siRNA pools targeting the putative antibody targets ICAM1, CADM1, and PTPRG. Cells were then subjected to cognate IgG binding analysis via flow cytometry. (NT, non-targeting siRNA).
# (§2) ELISA ELISA was conducted as described previously. Briefly, 50-150 ng of antigen was coated overnight in half-area 96-well plates at 4° C., blocked with 3% BSA at 37° C. for 1 h, and 150 ng of chimeric rabbit/human IgG1 was added, incubating for 2 h at 37° C. […] After incubating at 37° C. for 15 min-1 h (depending on intensity of controls), data were acquired using a SpectraMax M5 plate reader (Molecular Devices).
# [3] = target: T2, IGSF11; assay: ELISA on coated protein
# Protocol: as §1, §2
# [4] = target: T3, SELL; assay: ELISA on coated protein
# Protocol: as §1, §2
# [5] = target: T4, HHLA2; assay: ELISA on coated protein
# Protocol: as §1, §2
# [6] = target: T7, PTP4A3; assay: ELISA on coated protein
# T7 construct: also called His-PTP4A3 (R&D Systems)
# T7 sequence (chain, as listed by the source limits assumed): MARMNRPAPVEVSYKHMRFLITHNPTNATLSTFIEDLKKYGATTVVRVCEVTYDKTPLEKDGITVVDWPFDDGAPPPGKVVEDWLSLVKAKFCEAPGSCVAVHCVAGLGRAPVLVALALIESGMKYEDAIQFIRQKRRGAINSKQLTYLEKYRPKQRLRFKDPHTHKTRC
# Protocol: as §1, §2
# [7] = target: T5, SLAMF7; assay: ELISA on coated protein
# Protocol: as §1, §2
binder,measurement,setting,value
B1,mAb binding (MFI),[1],8320
same,binding result,[2],no binding (tested: 150 ng IgG1 per well)
same,binding result,[3],no binding (tested: 150 ng IgG1 per well)
same,binding result,[4],no binding (tested: 150 ng IgG1 per well)
same,binding result,[5],no binding (tested: 150 ng IgG1 per well)
same,binding result,[6],no binding (tested: 150 ng IgG1 per well)
same,binding result,[7],no binding (tested: 150 ng IgG1 per well)
B2,binding result,[2],no binding (tested: 150 ng IgG1 per well)
same,binding result,[3],no binding (tested: 150 ng IgG1 per well)
same,binding result,[4],no binding (tested: 150 ng IgG1 per well)
same,binding result,[5],no binding (tested: 150 ng IgG1 per well)
same,binding result,[6],no binding (tested: 150 ng IgG1 per well)
same,binding result,[7],no binding (tested: 150 ng IgG1 per well)
B3,mAb binding (MFI),[1],12300
same,binding result,[2],no binding (tested: 150 ng IgG1 per well)
same,binding result,[3],no binding (tested: 150 ng IgG1 per well)
same,binding result,[4],no binding (tested: 150 ng IgG1 per well)
same,binding result,[5],no binding (tested: 150 ng IgG1 per well)
same,binding result,[6],no binding (tested: 150 ng IgG1 per well)
same,binding result,[7],no binding (tested: 150 ng IgG1 per well)
B4,binding result,[2],no binding (tested: 150 ng IgG1 per well)
same,binding result,[3],no binding (tested: 150 ng IgG1 per well)
same,binding result,[4],no binding (tested: 150 ng IgG1 per well)
same,binding result,[5],no binding (tested: 150 ng IgG1 per well)
same,binding result,[6],no binding (tested: 150 ng IgG1 per well)
same,binding result,[7],no binding (tested: 150 ng IgG1 per well)
B5,binding result,[2],no binding (tested: 150 ng IgG1 per well)
same,binding result,[3],no binding (tested: 150 ng IgG1 per well)
same,binding result,[4],no binding (tested: 150 ng IgG1 per well)
same,binding result,[5],no binding (tested: 150 ng IgG1 per well)
same,binding result,[6],no binding (tested: 150 ng IgG1 per well)
same,binding result,[7],no binding (tested: 150 ng IgG1 per well)
B6,binding result,[2],no binding (tested: 150 ng IgG1 per well)
same,binding result,[3],no binding (tested: 150 ng IgG1 per well)
same,binding result,[4],no binding (tested: 150 ng IgG1 per well)
same,binding result,[5],no binding (tested: 150 ng IgG1 per well)
same,binding result,[6],no binding (tested: 150 ng IgG1 per well)
same,binding result,[7],no binding (tested: 150 ng IgG1 per well)
B7,mAb binding (MFI),[1],595
B8,binding result,[2],no binding (tested: 150 ng IgG1 per well)
same,binding result,[3],no binding (tested: 150 ng IgG1 per well)
same,binding result,[4],no binding (tested: 150 ng IgG1 per well)
same,binding result,[5],no binding (tested: 150 ng IgG1 per well)
same,binding result,[6],no binding (tested: 150 ng IgG1 per well)
same,binding result,[7],no binding (tested: 150 ng IgG1 per well)
